# Target: Deinococcus radiodurans DNA polymerase III β subunit (β-clamp), short version of 362 amino acids (Deinococcus radiodurans strain R1)
# Assay: SEC; Superdex 75 10/30, purified Drβ-clamp, size and tertiary structure analysis
substance,measurement,value
"Deinococcus radiodurans DNA polymerase III β subunit (β-clamp), short version of 362 amino acids (natural protein)",stoichiometry N,2

# — PMC4350885
